Experimental data as given in publication PMC5666004.

Tests used:
[1] = target: Htt-N20-GB1 (N-terminal 20-residue fragment of Htt with GB1 fused at the C terminus) (UniProt P42858); assay: NMR titration; 15N-labelled Htt-N20-GB1 or mutants (50 μM) titrated with HSP90 constructs or HSP70; [1H,15N] HSQC peak intensities; 20 mM phosphate, 50 mM NaCl, pH 6.5, 25 °C
[2] = target: Htt-N20^S13P-GB1 (UniProt P42858); assay: as above
[3] = target: HSP90-MC (residues 236–696) (UniProt P07900); assay: SEC; Superdex-200 Increase 10/300 GL, ~100 μM protein loaded; 20 mM phosphate, 50 mM NaCl, pH 6.5; apparent molecular weights from calibration with standard proteins

Row | average relative peak intensity of the Htt-N20 moiety at a 1:1 ratio [1] | average relative peak intensity of the Htt-N20 moiety at a 1:1 ratio [2] | stoichiometry N [3] | Substance
1 | 0.59 | 0.86 |  | HSP90(1–696) (from UniProt P07900 1-696) (domain or fragment)
2 |  |  | 2 | HSP90-MC (residues 236–696) (from UniProt P07900 236-696) (domain or fragment)
